Results taken from paper PMC5887453 (Nucleic Acids Research, 2018).

How the values were obtained:
Experiment in all cases: native gel or EMSA
PhoEF-2 M219S = molecular target: T1, PhoEF-2 M219S (Pyrococcus horikoshii, UniProt O59521 1-732, M219S)
T1 sequence (looked up): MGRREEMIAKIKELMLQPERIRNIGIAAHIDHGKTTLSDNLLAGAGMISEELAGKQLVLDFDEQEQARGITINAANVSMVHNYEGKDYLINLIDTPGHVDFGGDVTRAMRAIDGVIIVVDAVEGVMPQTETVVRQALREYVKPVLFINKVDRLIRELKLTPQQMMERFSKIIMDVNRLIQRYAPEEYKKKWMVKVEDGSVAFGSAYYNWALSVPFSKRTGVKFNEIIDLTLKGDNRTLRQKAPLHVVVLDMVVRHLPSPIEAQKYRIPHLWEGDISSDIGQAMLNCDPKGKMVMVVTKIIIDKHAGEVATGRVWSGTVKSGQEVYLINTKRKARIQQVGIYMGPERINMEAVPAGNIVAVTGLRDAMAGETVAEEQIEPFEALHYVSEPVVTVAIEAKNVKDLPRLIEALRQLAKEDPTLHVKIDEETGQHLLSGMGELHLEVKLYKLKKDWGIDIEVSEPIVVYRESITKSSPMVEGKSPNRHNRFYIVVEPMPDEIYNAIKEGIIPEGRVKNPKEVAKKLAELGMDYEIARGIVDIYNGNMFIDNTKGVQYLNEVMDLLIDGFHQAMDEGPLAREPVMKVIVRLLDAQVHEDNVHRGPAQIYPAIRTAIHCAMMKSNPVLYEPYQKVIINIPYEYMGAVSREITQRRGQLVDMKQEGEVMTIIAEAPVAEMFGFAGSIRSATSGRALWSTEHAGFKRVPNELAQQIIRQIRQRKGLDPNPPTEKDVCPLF

[1] = molecular target: T2, Pyrococcus horikoshii elongation factor 2 (PhoEF-2), wild type (Pyrococcus horikoshii, UniProt O59521 1-732)
T2 sequence (looked up): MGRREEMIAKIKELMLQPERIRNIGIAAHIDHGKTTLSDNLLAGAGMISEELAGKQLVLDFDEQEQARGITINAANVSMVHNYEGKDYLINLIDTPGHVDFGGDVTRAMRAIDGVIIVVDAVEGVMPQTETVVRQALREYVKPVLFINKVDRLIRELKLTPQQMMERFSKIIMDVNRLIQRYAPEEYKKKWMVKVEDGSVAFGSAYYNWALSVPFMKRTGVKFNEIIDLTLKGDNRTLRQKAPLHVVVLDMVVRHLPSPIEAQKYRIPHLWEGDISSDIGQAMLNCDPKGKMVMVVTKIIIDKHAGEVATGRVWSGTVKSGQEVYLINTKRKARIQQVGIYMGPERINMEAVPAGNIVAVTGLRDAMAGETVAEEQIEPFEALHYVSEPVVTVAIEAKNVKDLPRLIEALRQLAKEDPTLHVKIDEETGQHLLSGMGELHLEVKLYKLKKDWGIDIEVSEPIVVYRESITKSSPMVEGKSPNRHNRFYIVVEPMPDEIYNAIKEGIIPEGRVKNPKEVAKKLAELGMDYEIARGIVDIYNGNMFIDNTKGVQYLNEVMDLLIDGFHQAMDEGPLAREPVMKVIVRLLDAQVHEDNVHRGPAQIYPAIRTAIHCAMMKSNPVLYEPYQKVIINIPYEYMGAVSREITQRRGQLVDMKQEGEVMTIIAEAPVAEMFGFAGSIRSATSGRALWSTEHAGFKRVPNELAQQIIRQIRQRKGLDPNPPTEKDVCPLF

PhoEF-2 V198S = molecular target: T3, PhoEF-2 V198S (Pyrococcus horikoshii, UniProt O59521 1-732, V198S)
T3 sequence (looked up): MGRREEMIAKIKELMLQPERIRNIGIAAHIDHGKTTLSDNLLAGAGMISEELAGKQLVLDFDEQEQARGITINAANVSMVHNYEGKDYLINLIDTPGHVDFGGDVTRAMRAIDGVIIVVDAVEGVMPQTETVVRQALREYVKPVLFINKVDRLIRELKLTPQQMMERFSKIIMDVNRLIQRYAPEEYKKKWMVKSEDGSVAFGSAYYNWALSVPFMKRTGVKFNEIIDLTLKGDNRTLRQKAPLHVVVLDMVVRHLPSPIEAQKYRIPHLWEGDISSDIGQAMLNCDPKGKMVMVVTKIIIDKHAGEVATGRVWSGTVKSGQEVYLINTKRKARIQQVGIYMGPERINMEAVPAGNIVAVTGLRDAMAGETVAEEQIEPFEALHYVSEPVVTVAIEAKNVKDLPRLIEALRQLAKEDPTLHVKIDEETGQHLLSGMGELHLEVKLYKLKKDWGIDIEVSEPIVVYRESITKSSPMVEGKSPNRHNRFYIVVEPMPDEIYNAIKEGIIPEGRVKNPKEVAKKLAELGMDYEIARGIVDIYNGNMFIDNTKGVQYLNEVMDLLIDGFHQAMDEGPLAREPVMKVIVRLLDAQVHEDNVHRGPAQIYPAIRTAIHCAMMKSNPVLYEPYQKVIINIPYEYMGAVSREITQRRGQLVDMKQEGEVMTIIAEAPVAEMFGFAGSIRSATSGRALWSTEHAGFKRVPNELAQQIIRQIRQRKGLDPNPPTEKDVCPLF

binding result (PhoEF-2 M219S): binds
binding result [1]: binds
binding result (PhoEF-2 V198S): binds
B1: Pyrococcus horikoshii ribosomal stalk protein P1 (natural protein, UniProt O57705 1-108, looked up)
chain: MEYVYAALLLHSVGKEINEENLKAVLQAAGVEPEEARIKALVAALEGVNIDEVIEKAAMPVAVAAAPAAAPAEAGGEEKKEEEKKEEEEKEEEVSEEEALAGLSALFG
modifications: in the SPR only: biotin on amino groups via a PEG linker (EZ-Link NHS-PEG4-Biotin)
